Article PMC5062604

Target: Pseudomonas aeruginosa type I-F CRISPR-Cas surveillance complex (Csy complex) (P. aeruginosa) (UniProt Q02MM1)
Test: SEC; competition: purified Csy complex pre-incubated 1 h with a 10-fold molar excess of FLAG-tagged AcrF1 (mutant or wild type), then an equal amount of HA-tagged wild-type AcrF1 added for 1 h; size exclusion chromatography; peak fractions by SDS-PAGE, silver staining and Western blot

Row | percent exchanged with HA-tagged wild-type AcrF1 at 1 h | Substance
1 | 50% | FLAG-tagged AcrF1 E31A (natural protein)
2 | 50% | FLAG-tagged AcrF1 Y20A (natural protein)
